Consider two molecules from patent publication US20170009259A1 (SUMITOMO RUBBER INDUSTRIES, published 2017).

First the molecules themselves.
T1: Hevea rubber transferase 2 (HRT2), cis-prenyltransferase from Hevea brasiliensis (Hevea brasiliensis, UniProt Q8W3U4 1-284)
T1 construct: In the yeast two-hybrid assay it was expressed from the pPR3-N prey vector (pPR-HRT2) or the pBT3-SUC bait vector (pBT-HRT2); also called CPT; pPR-HRT2
T1 sequence: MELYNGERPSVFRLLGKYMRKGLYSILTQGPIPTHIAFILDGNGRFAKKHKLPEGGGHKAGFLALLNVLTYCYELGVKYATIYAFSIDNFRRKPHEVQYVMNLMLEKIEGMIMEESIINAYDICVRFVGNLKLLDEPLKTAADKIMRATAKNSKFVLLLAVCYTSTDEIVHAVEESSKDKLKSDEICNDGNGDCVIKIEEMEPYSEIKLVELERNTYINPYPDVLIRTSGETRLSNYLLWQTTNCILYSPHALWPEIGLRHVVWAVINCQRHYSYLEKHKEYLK

B1: Hevea rubber transferase 1 (HRT1), cis-prenyltransferase from Hevea brasiliensis (enzyme)
chain: MELYNGERPSVFRLLGKYMRKGLYSILTQGPIPTHIAFILDGNRRFAKKHKLPEGGGHKAGFLALLNVLTYCYELGVKYATIYAFSIDNFRRKPHEVQYVMDLMLEKIEGMIMEESIINAYDICVRFVGNLKLLSEPVKTAADKIMRATANNSKCVLLIAVCYTSTDEIVHAVEESSELNSNEVCNNQELEEANATGSGTVIQIENMESYSGIKLVDLEKNTYINPYPDVLIRTSGETRLSNYLLWQTTNCILYSPHALWPEIGLRHVVWAVINFQRHYSYLEKHKEYLK
notes: In the yeast two-hybrid assay it was expressed from the pPR3-N prey vector (pPR-HRT1) or the pBT3-SUC bait vector (pBT-HRT1); also called CPT; pPR-HRT1
B2: Nogo-B receptor (NgBr) from Hevea brasiliensis (receptor)
chain: MDLKPGAGGQRVNRLVDPISYHFLQFLWRTLHLLVSLWYLQVSMVQMIEGFLISSGLVKRYGALDIDKVRYLAIVVDSEEAYQISKVIQLLKWVEDMGVKHLCLYDSKGVLKTNKKTIMESLNNAMPFEEAVEKDVLLDQKQMTVEFASSSDGKEAITRAANVLFMKYLKYAKTGVGKEEPCFTEDQMDEALKAIGYKGPEPDLLLIYGPVRCHLGFSPWRLRYTEMVHMGPLRYMNLGSLKKAIHRFTTVQQNYGT
notes: In the yeast two-hybrid assay it was expressed from the pBT3-SUC bait vector (pBT-NgBr); also called pBT-NgBr

Test [1] has as its target B2. In words: yeast two-hybrid, pPR-HRT1 prey with pBT-NgBr bait (pair No. 5), growth on Trp-, Leu-, Ade- and His-deficient SD medium. The procedure:
(§1) The yeast strain NMY-51 was transformed with the collected plasmids. The PEG method was used for the double transformation of the yeast. The transformant cells were cultured at 30° C. for three days on Trp- and Leu-deficient SD medium for screening.
(§2) In this experiment, the yeast can grow on the selective medium only when a protein encoded by the gene introduced in the bait plasmid interacts with a protein encoded by the gene introduced in the prey plasmid.

Test [2] addresses T1, Hevea rubber transferase 2 (HRT2), …. In words: yeast two-hybrid, pPR-HRT1 prey with pBT-HRT2 bait (pair No. 6), growth on Trp-, Leu-, Ade- and His-deficient SD medium. How it is done:
as §1, §2

The target is the same in test [3]. As to the kind of experiment: yeast two-hybrid, pPR-HRT2 prey with pBT-NgBr bait (pair No. 9), growth on Trp-, Leu-, Ade- and His-deficient SD medium. How it is done:
as §1, §2

Regarding B1, the binding result in test [1] is given as “binds”; in test [2] it was “no binding”.

With B2, the binding result in test [3] was “no binding”.
